Measured values reported in PMC6251626, “Structural basis of tubulin recruitment and assembly by microtubule polymerases with tumor overexpressed gene (TOG) domain arrays” (eLife, 2018).

Columns and labels:
[1] = biological target: the molecule itself; experiment: SEC-MALS; isolated proteins alone, 200 mM KCl
[2] = biological target: T1, αβ-tubulin heterodimer purified from porcine brains (porcine, UniProt P02550 1-451; P02554 1-445); experiment: SEC; quantitative SEC (Superdex 200 10/300) with SDS-PAGE densitometry of fractions; 2 αβ-tubulin per Alp14 subunit, with or without DRP; 100 mM KCl, 50 mM HEPES pH 7.0, 1 mM MgCl2, 1 mM β-mercaptoethanol; conditions: both partners purified
T1 construct: α-tubulin of porcine brain; β-tubulin of porcine brain; Brain tubulin is a mixture of isotypes; Chains also in PDB 6MZF, 6MZE, 6MZG; also called soluble porcine αβ-tubulin; source: purified from porcine brains (two GTP-polymerization cycles at high ionic strength); copies: 1 + 1

[3] = biological target: T1, αβ-tubulin heterodimer purified from …; experiment: SEC-MALS; Alp14 constructs mixed with soluble αβ-tubulin (with or without DRP), Superdex 200 Increase 10/300, 80-100 mM KCl; conditions: both partners purified
[4] = biological target: T1, αβ-tubulin heterodimer purified from …; experiment: SEC; quantitative SEC (Superdex 200 10/300) with SDS-PAGE densitometry of fractions; 2 αβ-tubulin per Alp14 subunit, with or without DRP; 200 mM KCl, 50 mM HEPES pH 7.0, 1 mM MgCl2, 1 mM β-mercaptoethanol; conditions: both partners purified

TOG1-TOG2:αβ-tubulin molar ratio [2]	stoichiometry N [3]	TOG1-TOG2:αβ-tubulin molar ratio [4]	Binder	stoichiometry N [1]
–	–	–	wt-Alp14-dimer (S. pombe Alp14 residues 1-690) (domain or fragment, UniProt O94534 1-690, looked up, Alp14 (Alp14p), S. pombe, residues 1-690 (TOG1-TOG2, SK-rich region, coiled coil); also called dimeric Alp14; source: E. coli BL21, purified (Ni-IDA and/or ion exchange, SEC)) MSQDQEEDYSKLPLESRIVHKVWKVRLSAYEECSKSFSLSADGSDNCFELWNNQSELWKSVLTDSNVAAQEAGTAAFVAYCRFSDPSHLLKAREISVLSISEKCLTSPRAGTRENALEALMLLVEADSAAPVIESIIPSLSARSPKVIASNVAAIASLVEQFGAKVIPSKMIIPHISNLFGHADKNVRKEASRLTVNIYRWTGDPLKDLLFKDLRPVQTKELESLFAELPTEPPKQTRFLKSQQPTSEPNVETQVEEQPALENEESEPEPSDDQFDLVEEVDVLPNVDPNLETLMASSKWKDRKEALDKLLPVLSQPKIKDNDFFNLVAILTKSVSKDANIMVVINAAHCIQAMAKGLRSNFSKYASTSINALLERSKEKKANVIESLSSAMDAVLATSSLDDLAELIASFAGNKNPQIKSSCFSLFSRSFSNMTSLPSKFTVDTCAKACVPGVSDTFEPVRSAAAEALGVLMKLVGERAINQYLSPLDDIRKSKIRSFYETATVKAKAPTKKSKVKPSKQEESKVVVPSNAKAVKKSVVPSSPVVPSPRKATNKSLSMDVSKGNAFENGPLLPRPTTRPVSRGLSRGTSSSLQQKVKASTPLNSGALNETVQNLKNMELDDPAPQPAKHSRVDRYEHPKVLEDNDSTISSLESLKRENEELREQLKVEHEENISMQKQLSELKGELNTL	2
1.86	~4	1.46	INT1+2 (Alp14-dimer with interfaces 1 and 2 inactivated) (domain or fragment) MSQDQEEDYSKLPLESRIVHKVWKVRLSAYEECSKSFSDAAAGSDNCFELWNNQSELWKSVLTDSNVAAQEAGTAAFVAYCRFSDPSHLLKAREISVLSISEKCLTSPRAGTRENALEALMLLVEADSAAPVIESIIPSLSARSPKVIASNVAAIASLVEQFGAKVIPSKMIIPHISNLFGHADKNVRKEASRLTVNIYRWTGDPAKDALFKDLRPVQTKELESLFAELPTEPPKQTRFLKSQQPTSEPNVETQVEEQPALENEESEPEPSDDQRAAAEEVDVLPNVDPNLETLMASSKWKDRKEALDKLLPVLSQPKILDNDFFNLVAILTKSVSKDANIMVVINAAHCIQAMAKGLASNFSKYASTSINALLERSKEKKANVIESLSSAMDAVLATSSLDDLAELIASFAGNKNPQIKSSCFSLFSRSFSNMTSDPAKFTVDTCAKACVPGVSDTFEPVRSAAAEALGVLMKLVGAAAINQYLSPLDDIRKSKIRSFYETATVKAKAPTKKSKVKPSKQEESKVVVPSNAKAVKKSVVPSSPVVPSPRKATNKSLSMDVSKGNAFENGPLLPRPTTRPVSRGLSRGTSSSLQQKVKASTPLNSGALNETVQNLKNMELDDPAPQPAKHSRVDRYEHPKVLEDNDSTISSLESLKRENEELREQLKVEHEENISMQKQLSELKGELNTL	–
